According to article PMC12394548:
One block for each binder: values may come before it.

Target: valosin-containing protein (VCP)/p97 (UniProt P55072)
Sequence (P55072 whole entry): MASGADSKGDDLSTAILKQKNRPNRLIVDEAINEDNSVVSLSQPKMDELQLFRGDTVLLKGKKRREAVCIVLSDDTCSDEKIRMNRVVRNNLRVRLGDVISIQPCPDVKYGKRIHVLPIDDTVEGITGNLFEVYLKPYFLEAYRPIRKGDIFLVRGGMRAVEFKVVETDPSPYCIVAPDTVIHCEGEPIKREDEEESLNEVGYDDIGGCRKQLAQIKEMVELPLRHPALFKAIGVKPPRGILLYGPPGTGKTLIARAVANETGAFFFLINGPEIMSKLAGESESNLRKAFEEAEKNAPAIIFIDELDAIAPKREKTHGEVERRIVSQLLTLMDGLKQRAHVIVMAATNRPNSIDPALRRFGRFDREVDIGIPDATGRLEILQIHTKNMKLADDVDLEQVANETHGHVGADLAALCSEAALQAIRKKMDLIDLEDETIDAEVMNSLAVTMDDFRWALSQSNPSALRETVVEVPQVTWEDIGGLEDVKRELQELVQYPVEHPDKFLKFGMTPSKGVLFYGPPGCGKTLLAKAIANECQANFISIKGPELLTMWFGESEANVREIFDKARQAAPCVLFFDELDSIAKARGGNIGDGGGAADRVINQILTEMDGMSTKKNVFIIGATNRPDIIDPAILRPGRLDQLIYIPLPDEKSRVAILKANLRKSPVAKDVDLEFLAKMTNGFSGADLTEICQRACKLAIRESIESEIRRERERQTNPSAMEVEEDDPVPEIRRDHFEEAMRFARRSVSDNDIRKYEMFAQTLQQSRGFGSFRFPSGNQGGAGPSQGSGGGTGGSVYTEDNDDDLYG

- initial velocity of Ub-Rho hydrolysis by VCPIP1^ΔUBX (62.5 nM enzyme) in the presence of VCP (v0 = 754.0 RFU/min without VCP); no effect of VCP: 733 RFU/min
B1: VCPIP1^ΔUBX (aa Δ773-852) (enzyme)
chain: MSQPPPPPPPLPPPPPPPEAPQTPSSLASAAASGGLLKRRDRRILSGSCPDPKCQARLFFPASGSVSIECTECGQRHEQQQLLGVEEVTDPDVVLHNLLRNALLGVTGAPKKNTELVKVMGLSNYHCKLLSPILARYGMDKQTGRAKLLRDMNQGELFDCALLGDRAFLIEPEHVNTVGYGKDRSGSLLYLHDTLEDIKRANKSQECLIPVHVDGDGHCLVHAVSRALVGRELFWHALRENLKQHFQQHLARYQALFHDFIDAAEWEDIINECDPLFVPPEGVPLGLRNIHIFGLANVLHRPIILLDSLSGMRSSGDYSATFLPGLIPAEKCTGKDGHLNKPICIAWSSSGRNHYIPLVGIKGAALPKLPMNLLPKAWGVPQDLIKKYIKLEEDGGCVIGGDRSLQDKYLLRLVAAMEEVFMDKHGIHPSLVADVHQYFYRRTGVIGVQPEEVTAAAKKAVMDNRLHKCLLCGALSELHVPPEWLAPGGKLYNLAKSTHGQLRTDKNYSFPLNNLVCSYDSVKDVLVPDYGMSNLTACNWCHGTSVRKVRGDGSIVYLDGDRTNSRSTGGKCGCGFKHFWDGKEYDNLPEAFPITLEWGGRVVRETVYWFQYESDSSLNSNVYDVAMKLVTKHFPGEFGSEILVQKVVHTILHQTAKKNPDDYTPVNIDGAHAQRVGDVQGQESESQLPTKIILTGQKTKTLHKEELNMSKTERTIQQNITEQASVMQKRKTEKLKQEQKGQPRTVSPSTIRDGPSSAPATPTKAPYSPTTSSKAEGGQSAAAHSAHTVKQEDIAVTGKLSSKELQEQAEKEMYSLCLLATLMGEDVWSYAKGLPHMFQQGGVFYSIMKKTMGMADGKHCTFPHLPGKTFVYNASEDRLELCVDAAGHFPIGPDVEDLVKEAVSQVRAEATTRSRESSPSHGLLKLGSGGVVKKKSEQLHNVTAFQGKGHSLGTASGNPHLDPRARETSVVRKHNTGTDFSNSSTKTEPSVFTASSSNSELIRIAPGVVTMRDGRQLDPDLVEAQRKKLQEMVSSIQASMDRHLRDQSTEQSPSDLPQRKTEVVSSSAKSGSLQTGLPESFPLTGGTENLNTETTDGCVADALGAAFATRSKAQRGNSVEELEEMDSQDAEMTNTTEPMDHS
modifications: BODIPY, non-site-selective labelling, DOL 0.54, in the TR-FRET binding assay

- initial velocity of Ub-Rho hydrolysis by VCPIP1^(ΔVCPID ΔUBX) (62.5 nM enzyme) in the presence of VCP (v0 = 656.0 RFU/min without VCP); no effect of VCP: 562 RFU/min
B2: VCPIP1^(ΔVCPID ΔUBX) (aa Δ589-666, Δ773-852) (enzyme)
chain: MSQPPPPPPPLPPPPPPPEAPQTPSSLASAAASGGLLKRRDRRILSGSCPDPKCQARLFFPASGSVSIECTECGQRHEQQQLLGVEEVTDPDVVLHNLLRNALLGVTGAPKKNTELVKVMGLSNYHCKLLSPILARYGMDKQTGRAKLLRDMNQGELFDCALLGDRAFLIEPEHVNTVGYGKDRSGSLLYLHDTLEDIKRANKSQECLIPVHVDGDGHCLVHAVSRALVGRELFWHALRENLKQHFQQHLARYQALFHDFIDAAEWEDIINECDPLFVPPEGVPLGLRNIHIFGLANVLHRPIILLDSLSGMRSSGDYSATFLPGLIPAEKCTGKDGHLNKPICIAWSSSGRNHYIPLVGIKGAALPKLPMNLLPKAWGVPQDLIKKYIKLEEDGGCVIGGDRSLQDKYLLRLVAAMEEVFMDKHGIHPSLVADVHQYFYRRTGVIGVQPEEVTAAAKKAVMDNRLHKCLLCGALSELHVPPEWLAPGGKLYNLAKSTHGQLRTDKNYSFPLNNLVCSYDSVKDVLVPDYGMSNLTACNWCHGTSVRKVRGDGSIVYLDGDRTNSRSTGGKCGCGFKHFWDGKEYDNLNIDGAHAQRVGDVQGQESESQLPTKIILTGQKTKTLHKEELNMSKTERTIQQNITEQASVMQKRKTEKLKQEQKGQPRTVSPSTIRDGPSSAPATPTKAPYSPTTSSKAEGGQSAAAHSAHTVKQEDIAVTGKLSSKELQEQAEKEMYSLCLLATLMGEDVWSYAKGLPHMFQQGGVFYSIMKKTMGMADGKHCTFPHLPGKTFVYNASEDRLELCVDAAGHFPIGPDVEDLVKEAVSQVRAEATTRSRESSPSHGLLKLGSGGVVKKKSEQLHNVTAFQGKGHSLGTASGNPHLDPRARETSVVRKHNTGTDFSNSSTKTEPSVFTASSSNSELIRIAPGVVTMRDGRQLDPDLVEAQRKKLQEMVSSIQASMDRHLRDQSTEQSPSDLPQRKTEVVSSSAKSGSLQTGLPESFPLTGGTENLNTETTDGCVADALGAAFATRSKAQRGNSVEELEEMDSQDAEMTNTTEPMDHS
modifications: BODIPY, non-site-selective labelling, DOL 0.44, in the TR-FRET binding assay
